Test [1] concerns the target T1, FcγRIIIA (UniProt P08637 17-208, limits assumed).
T1 construct: also called CD16A
In words: ELISA. In general terms: An ELISA detects its analyte on a solid surface through an enzyme-linked reagent.

For test [2], the target named is T1, FcγRIIIA. The test is described as follows: ELISA. The source holds these as a separate data set.
Test [3] concerns the target T2, FcγRIIB-Fc fusion protein, soluble dimeric: extracellular domain of FcγRIIB fused to the hinge-CH2-CH3 domain … (human, UniProt P31994 43-217, limits assumed).
T2 construct: extracellular domain; also called FcRIIB-Fc; FcR2B; not shown: human IgG2 hinge-CH2-CH3
T2 sequence (looked up): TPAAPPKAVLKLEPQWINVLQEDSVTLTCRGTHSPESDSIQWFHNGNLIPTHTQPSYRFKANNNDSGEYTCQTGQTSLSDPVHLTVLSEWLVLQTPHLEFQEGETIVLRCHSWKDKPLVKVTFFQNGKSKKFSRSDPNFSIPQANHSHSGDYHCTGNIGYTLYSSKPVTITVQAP
In words: BIAcore.

Test [4] addresses T3, soluble monomeric FcγRIIIA, the extracellular region of FcγRIIIA joined to the linker-AVITAG sequence (UniProt P08637 17-208, limits assumed).
T3 construct: extracellular domain; also called FcRIIIA; FcR3A
In words: BIAcore. (In SPR one partner is held on a chip, and binding of the other changes the refractive index at the surface.)

The target in test [5] is T4, FcγRIIB (UniProt P31994 43-217, limits assumed).
T4 construct: also called CD32B
T4 sequence (looked up): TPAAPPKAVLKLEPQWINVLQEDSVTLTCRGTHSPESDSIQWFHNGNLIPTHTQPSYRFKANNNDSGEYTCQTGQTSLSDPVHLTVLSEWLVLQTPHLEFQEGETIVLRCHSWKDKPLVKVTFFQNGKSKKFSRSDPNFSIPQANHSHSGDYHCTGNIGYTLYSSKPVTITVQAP
The test is described as follows: ELISA.

From US20080138349A1 (MacroGenics, published 2008) come the findings set out here.

What is called Kd is the constant that tells how readily two partners part at equilibrium. Low values mean a tighter complex, high ones a looser complex. Broadly, the koff is a measure of how fast the partners let go of each other.

T1 sequence (P08637 17-208 limits assumed): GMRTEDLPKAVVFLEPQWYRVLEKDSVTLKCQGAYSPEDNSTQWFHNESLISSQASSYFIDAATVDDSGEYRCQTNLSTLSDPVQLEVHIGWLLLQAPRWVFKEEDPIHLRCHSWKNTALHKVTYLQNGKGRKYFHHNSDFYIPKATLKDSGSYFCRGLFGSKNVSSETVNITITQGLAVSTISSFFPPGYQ
T3 sequence (P08637 17-208 limits assumed): as above

B1: ch4-4-20 E293V, Q295E, A327T (antibody)
chain: EPKSCDKTHTCPPCPAPELLGGPSVFLFPPKPKDTLMISRTPEVTCVVVDVSHEDPEVKFNWYVDGVEVHNAKTKPRVEEYNSTYRVVSVLTVLHQDWLNGKEYKCKVSNKTLPAPIEKTISKAKGQPREPQVYTLPPSREEMTKNQVSLTCLVKGFYPSDIAVEWESNGQPENNYKTTPPVLDSDGSFFLYSKLTVDKSRWQQGNVFSCSVMHEALHNHYTQKSLSLSPGK
B1: the “ELISA IIIA binding vs wt” value in test [1] came to 1.4 X. For the same molecule, the “ELISA binding increase vs wt” value in test [2] came out at 0.4 x. Binding in test [3] was characterised by a dissociation constant (Kd) of 0.086 µM.

B2: ch4-4-20 Y319F, P352L, P396L (antibody)
chain: EPKSCDKTHTCPPCPAPELLGGPSVFLFPPKPKDTLMISRTPEVTCVVVDVSHEDPEVKFNWYVDGVEVHNAKTKPREEQYNSTYRVVSVLTVLHQDWLNGKEFKCKVSNKALPAPIEKTISKAKGQPREPQVYTLLPSREEMTKNQVSLTCLVKGFYPSDIAVEWESNGQPENNYKTTPLVLDSDGSFFLYSKLTVDKSRWQQGNVFSCSVMHEALHNHYTQKSLSLSPGK
Consider B2, for which the “ELISA IIIA binding vs wt” value in test [1] worked out at 3.5 X. Binding in test [4] was characterised by a dissociation constant (Kd) of 0.125 µM.

B3: ch4-4-20 D221E, D270E, V308A, Q311H, P396L, G402D (antibody)
chain: EPKSCEKTHTCPPCPAPELLGGPSVFLFPPKPKDTLMISRTPEVTCVVVDVSHEEPEVKFNWYVDGVEVHNAKTKPREEQYNSTYRVVSVLTALHHDWLNGKEYKCKVSNKALPAPIEKTISKAKGQPREPQVYTLPPSREEMTKNQVSLTCLVKGFYPSDIAVEWESNGQPENNYKTTPLVLDSDDSFFLYSKLTVDKSRWQQGNVFSCSVMHEALHNHYTQKSLSLSPGK
On to B3, for which the “ELISA binding increase vs wt” value came out at 0.1 x in test [5] and 3.6 x in test [2].

B4: ch4-4-20 V348M, K334N, F275I, Y202M, K147T (antibody)
chain: ASTKGPSVFPLAPSSKSTSGGTAALGCLVTDYFPEPVTVSWNSGALTSGVHTFPAVLQSSGLYSLSSVVTVPSSSLGTQTYICNMNHKPSNTKVDKKVEPKSCDKTHTCPPCPAPELLGGPSVFLFPPKPKDTLMISRTPEVTCVVVDVSHEDPEVKINWYVDGVEVHNAKTKPREEQYNSTYRVVSVLTVLHQDWLNGKEYKCKVSNKALPAPIENTISKAKGQPREPQMYTLPPSRDELTKNQVSLTCLVKGFYPSDIAVEWESNGQPENNYKTTPPVLDSDGSFFLYSKLTVDKSRWQQGNVFSCSVMHEALHNHYTQKSLSLSPGK
With B4, the “ELISA binding increase vs wt” value in test [5] was 0.75 x; in test [2] it was 0.5 x.

B5: ch4-4-20 V379M (antibody)
chain 1: not shown
chain 2: DVVMTQTPLSLPVSLGDQASISCRSSQSLVHSNGNTYLRWYLQKPGQSPKVLIYKVSNRFSGVPDRFSGSGSGTDFTLKISRVEAEDLGVYFCSQSTHVPWTFGGGTKLEIKRTVAAPSVFIFPPSDEQLKSGTASVVCLLNNFYPREAKVQWKVDNALQSGNSQESVTEQDSKDSTYSLSSTLTLSKADYEKHKVYACEVTHQGLSSPVTKSFNRGEC
Regarding B5, the “ELISA IIIA binding vs wt” value in test [1] turned out to be 2 X. Further, in test [2], the “ELISA binding increase vs wt” value was 2 x. For the same molecule, the Kd in test [3] is 0.07 µM; in test [4], 0.16 µM. Moreover, the off-rate (koff) in test [3] came out at 0.1 s⁻¹; in test [4] it was 0.167 s⁻¹.

B6: ch4-4-20 F243I, V379L (antibody)
chain 1: not shown
chain 2: DVVMTQTPLSLPVSLGDQASISCRSSQSLVHSNGNTYLRWYLQKPGQSPKVLIYKVSNRFSGVPDRFSGSGSGTDFTLKISRVEAEDLGVYFCSQSTHVPWTFGGGTKLEIKRTVAAPSVFIFPPSDEQLKSGTASVVCLLNNFYPREAKVQWKVDNALQSGNSQESVTEQDSKDSTYSLSSTLTLSKADYEKHKVYACEVTHQGLSSPVTKSFNRGEC
Consider B6, for which the figures for the dissociation constant Kd in test [3] and in test [4] were 0.12 µM and 0.0997 µM, respectively. In addition, the values for the koff in test [3] and in test [4] were 0.113 s⁻¹ and 0.105 s⁻¹, respectively.

B7: ch4-4-20 F243I, V379L, G420V (antibody)
chain 1: EVKLDETGGGLVQPGRPMKLSCVASGFTFSDYWMNWVRQSPEKGLEWVAQIRNKPYNYETYYSDSVKGRFTISRDDSKSSVYLQMNNLRVEDMGIYYCTGSYYGMDYWGQGTSVTVSSASTKGPSVFPLAPSSKSTSGGTAALGCLVKDYFPEPVTVSWNSGALTSGVHTFPAVLQSSGLYSLSSVVTVPSSSLGTQTYICNVNHKPSNTKVDKKVEPKSCDKTHTCPPCPAPELLGGPSVFLIPPKPKDTLMISRTPEVTCVVVDVSHEDPEVKFNWYVDGVEVHNAKTKPREEQYNSTYRVVSVLTVLHQDWLNGKEYKCKVSNKALPAPIEKTISKAKGQPREPQVYTLPPSRDELTKNQVSLTCLVKGFYPSDIALEWESNGQPENNYKTTPPVLDSDGSFFLYSKLTVDKSRWQQVNVFSCSVMHEALHNHYTQKSLSLSPGK
chain 2: DVVMTQTPLSLPVSLGDQASISCRSSQSLVHSNGNTYLRWYLQKPGQSPKVLIYKVSNRFSGVPDRFSGSGSGTDFTLKISRVEAEDLGVYFCSQSTHVPWTFGGGTKLEIKRTVAAPSVFIFPPSDEQLKSGTASVVCLLNNFYPREAKVQWKVDNALQSGNSQESVTEQDSKDSTYSLSSTLTLSKADYEKHKVYACEVTHQGLSSPVTKSFNRGEC
For B7, in test [5], the “ELISA binding increase vs wt” value came out at 3.5 x. In test [3], the equilibrium dissociation constant (Kd) was 0.0934 µM and the koff turned out to be 0.101 s⁻¹.

B8: ch4-4-20 K334E, T359N, T366S (antibody)
chain 1: EVKLDETGGGLVQPGRPMKLSCVASGFTFSDYWMNWVRQSPEKGLEWVAQIRNKPYNYETYYSDSVKGRFTISRDDSKSSVYLQMNNLRVEDMGIYYCTGSYYGMDYWGQGTSVTVSSASTKGPSVFPLAPSSKSTSGGTAALGCLVKDYFPEPVTVSWNSGALTSGVHTFPAVLQSSGLYSLSSVVTVPSSSLGTQTYICNVNHKPSNTKVDKKVEPKSCDKTHTCPPCPAPELLGGPSVFLFPPKPKDTLMISRTPEVTCVVVDVSHEDPEVKFNWYVDGVEVHNAKTKPREEQYNSTYRVVSVLTVLHQDWLNGKEYKCKVSNKALPAPIEETISKAKGQPREPQVYTLPPSRDELNKNQVSLSCLVKGFYPSDIAVEWESNGQPENNYKTTPPVLDSDGSFFLYSKLTVDKSRWQQGNVFSCSVMHEALHNHYTQKSLSLSPGK
chain 2: DVVMTQTPLSLPVSLGDQASISCRSSQSLVHSNGNTYLRWYLQKPGQSPKVLIYKVSNRFSGVPDRFSGSGSGTDFTLKISRVEAEDLGVYFCSQSTHVPWTFGGGTKLEIKRTVAAPSVFIFPPSDEQLKSGTASVVCLLNNFYPREAKVQWKVDNALQSGNSQESVTEQDSKDSTYSLSSTLTLSKADYEKHKVYACEVTHQGLSSPVTKSFNRGEC
B8: the “ELISA IIIA binding vs wt” value in test [1] came to 1.5 X. Also, the “ELISA binding increase vs wt” value in test [2] stood at 1.5 x. In addition, in test [3], the Kd was determined as 0.072 µM and the off-rate (koff) was 0.11 s⁻¹. For the same molecule, in test [4], the dissociation constant (Kd) was determined as 0.0552 µM and the koff was 0.128 s⁻¹.

B9: ch4-4-20 G316D, A378V, D399E (antibody)
chain 1: EVKLDETGGGLVQPGRPMKLSCVASGFTFSDYWMNWVRQSPEKGLEWVAQIRNKPYNYETYYSDSVKGRFTISRDDSKSSVYLQMNNLRVEDMGIYYCTGSYYGMDYWGQGTSVTVSSASTKGPSVFPLAPSSKSTSGGTAALGCLVKDYFPEPVTVSWNSGALTSGVHTFPAVLQSSGLYSLSSVVTVPSSSLGTQTYICNVNHKPSNTKVDKKVEPKSCDKTHTCPPCPAPELLGGPSVFLFPPKPKDTLMISRTPEVTCVVVDVSHEDPEVKFNWYVDGVEVHNAKTKPREEQYNSTYRVVSVLTVLHQDWLNDKEYKCKVSNKALPAPIEKTISKAKGQPREPQVYTLPPSRDELTKNQVSLTCLVKGFYPSDIVVEWESNGQPENNYKTTPPVLESDGSFFLYSKLTVDKSRWQQGNVFSCSVMHEALHNHYTQKSLSLSPGK
chain 2: DVVMTQTPLSLPVSLGDQASISCRSSQSLVHSNGNTYLRWYLQKPGQSPKVLIYKVSNRFSGVPDRFSGSGSGTDFTLKISRVEAEDLGVYFCSQSTHVPWTFGGGTKLEIKRTVAAPSVFIFPPSDEQLKSGTASVVCLLNNFYPREAKVQWKVDNALQSGNSQESVTEQDSKDSTYSLSSTLTLSKADYEKHKVYACEVTHQGLSSPVTKSFNRGEC
As for B9, in test [1], the “ELISA IIIA binding vs wt” value came out at 1.5 X. The results for the “ELISA binding increase vs wt” value in test [5] and in test [2] were 14 x and 1.5 x, respectively. In addition, the dissociation constant Kd in test [3] stood at 0.046 µM; in test [4], 0.072 µM. Besides, the values for the koff in test [3] and in test [4] were 0.06 s⁻¹ and 0.117 s⁻¹, respectively.

B10: ch4-4-20 P247L, N421K (antibody)
chain 1: not shown
chain 2: DVVMTQTPLSLPVSLGDQASISCRSSQSLVHSNGNTYLRWYLQKPGQSPKVLIYKVSNRFSGVPDRFSGSGSGTDFTLKISRVEAEDLGVYFCSQSTHVPWTFGGGTKLEIKRTVAAPSVFIFPPSDEQLKSGTASVVCLLNNFYPREAKVQWKVDNALQSGNSQESVTEQDSKDSTYSLSSTLTLSKADYEKHKVYACEVTHQGLSSPVTKSFNRGEC
On to B10, for which, in test [1], the “ELISA IIIA binding vs wt” value turned out to be 3 X. In test [2], the “ELISA binding increase vs wt” value stood at 3 x. Moreover, the dissociation constant (Kd) in test [3] is 0.066 µM; in test [4], 0.062 µM. Moreover, the koff in test [3] worked out at 0.065 s⁻¹; in test [4], 0.108 s⁻¹.

B11: ch4-4-20 T215P, K274N, A287G, K334N, L365V, P396L (antibody)
chain: PEPKSCDKTHTCPPCPAPELLGGPSVFLFPPKPKDTLMISRTPEVTCVVVDVSHEDPEVNFNWYVDGVEVHNGKTKPREEQYNSTYRVVSVLTVLHQDWLNGKEYKCKVSNKALPAPIENTISKAKGQPREPQVYTLPPSRDELTKNQVSVTCLVKGFYPSDIAVEWESNGQPENNYKTTPLVLDSDGSFFLYSKLTVDKSRWQQGNVFSCSVMHEALHNHYTQKSLSLSPGK
Consider B11, for which the “ELISA binding increase vs wt” value in test [5] is 4 x.

B12: ch4-4-20 K317N, F423-deleted (antibody)
chain: EPKSCDKTHTCPPCPAPELLGGPSVFLFPPKPKDTLMISRTPEVTCVVVDVSHEDPEVKFNWYVDGVEVHNAKTKPREEQYNSTYRVVSVLTVLHQDWLNGNEYKCKVSNKALPAPIEKTISKAKGQPREPQVYTLPPSREEMTKNQVSLTCLVKGFYPSDIAVEWESNGQPENNYKTTPPVLDSDGSFFLYSKLTVDKSRWQQGNVSCSVMHEALHNHYTQKSLSLSPGK
In the case of B12, the “ELISA binding increase vs wt” value in test [5] was 7 x.
